Results taken from paper PMC3589125 (Structure (London, England : 1993), 2012).
Blank lines part the entries; values can stand above or below the molecule they belong to. Peptide text beside a SMILES is read from it.

Assays:
JNK3α1 [1] = target: T1, JNK3α1 (Homo sapiens, UniProt P53779); assay: FRET displacement of labeled JIP1 peptide, JNK3α1; format: binding; conditions: FRET IC50 for displacement of labeled JIP1 peptide, Inactive JNK3α1
Inactive JNK3α1, P53779 = assay: FRET or BRET
Inactive JNK1β1 = Inactive JNK1β1 (UniProt P45983-3 1-384); assay: FRET or BRET
Active JNK1β1 = Active JNK1β1 (UniProt P45983-3 1-384, phosphorylated in the activation loop by incubation with active MKK4 and MKK7); assay: FRET or BRET
JNK3α1 (39–422) = JNK3α1 (39–422) (UniProt P53779-2 39-422); assay: ITC
active JNK3α1 (39–422) = active JNK3α1 (39–422) (UniProt P53779)
JNK3α1 [2] = target: T1, JNK3α1; assay: Km of protein substrates for JNK3α1; format: biochemical; conditions: read-out: Km for JNK3α1; protein substrate

Molecule: CC(C)C[C@H](NC(=O)[C@H](CC(N)=O)NC(=O)[C@H](CC(C)C)NC(=O)[C@@H](NC(=O)[C@@H](NC(=O)[C@@H]1CCCN1C(=O)[C@H](CCCN=C(N)N)NC(=O)[C@H](CCCCN)NC(=O)[C@@H]1CCCN1C(=O)[C@@H](N)CCCN=C(N)N)[C@@H](C)O)[C@@H](C)O)C(=O)N[C@@H](Cc1ccccc1)C(=O)O [pepJIP] (H-RPKRPTTLNLF-OH)
IC50 (JNK3α1 [1]): 1.7 ± 0.4 µM

Molecule: CC(C)C[C@H](NC(=O)[C@H](CO)NC(=O)CNC(=O)[C@@H]1CCCN1C(=O)[C@H](CCCNC(=N)N)NC(=O)[C@@H](NC(=O)[C@@H](NC(=O)[C@H](C)N)C(C)C)C(C)C)C(=O)N[C@@H](CC(=O)O)C(=O)N[C@@H](CC(C)C)C(=O)N1CCC[C@H]1C(=O)O [pepSAB] (H-AVVRPGSLDLP-OH)
IC50 (JNK3α1 [1]): 834 ± 105 µM

Molecule: RPKRPTTLNLF [pepJIPhu(157–167)]
IC50 (Inactive JNK3α1, P53779): 1.7 µM | IC50 (Inactive JNK1β1): 2.5 ± 0.1 µM | IC50 (Active JNK1β1): 0.68 ± 0.02 µM | Kd (JNK3α1 (39–422)): 0.8 ± 0.1 µM | dH (JNK3α1 (39–422)): -7.65 kcal/mol

B1: His-SAB (1–390) (domain or fragment)
chain: MDAALKRSRSEEPAEILPPARDEEEEEEEGMEQGLEEEEEVDPRIQGELEKLNQSTDDINRRETELEDARQKFRSVLVEATVKLDELVKKIGKAVEDSKPYWEARRVARQAQLEAQKATQDFQRATEVLRAAKETISLAEQRLLEDDKRQFDSAWQEMLNHATQRVMEAEQTKTRSELVHKETAARYNAAMGRMRQLEKKLKRAINKSKPYFELKAKYYVQLEQLKKTVDDLQAKLTLAKGEYKMALKNLEMISDEIHERRRSSAMGPRGCGVGAEGSSTSVEDLPGSKPEPDAISVASEAFEDDSCSNFVSEDDSETQSVSSFSSGPTSPSEMPDQFPAVVRPGSLDLPSPVSLSEFGMMFPVLGPRSECSGASSPECEVERGDRAEGA
Km of SAB (1–390) as substrate of JNK3α1 (active JNK3α1 (39–422)): 0.77 µM

B2: SAB (1–390): recombinant SAB protein substrate for JNK kinase assays (protein)
chain: B1 chain
modifications: left off: His, end not stated, kept
Km (JNK3α1 [2]): 0.77 ± 0.09 µM

More lines, now with the values ahead:

IC50 (Inactive JNK3α1, P53779): 834 µM | IC50 (Inactive JNK1β1): 612 ± 21 µM | IC50 (Active JNK1β1): 386 ± 10 µM | Kd (JNK3α1 (39–422)): 17.2 ± 0.6 µM | dH (JNK3α1 (39–422)): -4.02 kcal/mol
Molecule: AVVRPGSLDLP [pepSABhu(40–350)]

IC50 (Inactive JNK1β1): 350 ± 12 µM | IC50 (Active JNK1β1): 169 ± 2 µM
Molecule: KHKHEMTLKFG [pepATF2Hu(46–56)]

Kd (JNK3α1 (39–422)): 32.1 ± 3.2 µM | dH (JNK3α1 (39–422)): -5.46 kcal/mol
Molecule: RPKQPTTLNLF [JIP1 R160Q]

Kd (JNK3α1 (39–422)): 4.9 ± 0.5 µM | dH (JNK3α1 (39–422)): -7.11 kcal/mol
Molecule: RPKRPGTLNLF [JIP1 T162G]

Kd (JNK3α1 (39–422)): 11.7 ± 1 µM | dH (JNK3α1 (39–422)): -6.71 kcal/mol
Molecule: RPKHPTTLNLF [JIP1 R160H]
